Assay results as given in patent publication US20220401560A1, “PEPTIDE ENCAPSULATING FERRITIN” (Ajinomoto Co., Inc., priority 2019, published 2022).
No end group written: not given here.

Target: T1, ferritin (FTH) (Homo sapiens, UniProt P02794)
T1 construct: made in house; host or cells: Escherichia coli BL21 (DE3), plasmid pET20-FTH
Experiment: Encapsulation of fluorescent dye-modified peptide into FTH, column chromatography with absorbance at 480 nm and LC-MS
Experimental: Of a 50 mM glycine hydrochloride buffer (pH 2.3) that contains FTH (chemical formula weight: 509,421) at a final concentration of 5 mg/mL and the peptide at a final concentration of 0.5 mM, 0.5 mL was left to stand at room temperature for 15 minutes. Next, 50 μL of a 1 M Tris hydrochloride buffer (pH 9.0) was added for neutralization, and the resulting solution was left to stand at room temperature for 3 hours. After the standing, the resulting solution was centrifuged (at 15,000 rpm for one minute). Then, the supernatant was collected and the volume was increased up to 3 mL with a 10 mM Tris hydrochloride buffer (pH 8). The resulting solution was injected into the HiPrep 26/60 Sephacryl S-300 HR column (GE Healthcare Inc.) equilibrated with a 10 mM Tris-HCl buffer (pH 8.0) to separate and purify 24-mer FTH by size at a flow rate of 1.3 mL/minute. The purified ferritin was analyzed using a HiPrep 16/60 Sephacryl S-300 HR column (GE Healthcare Inc.) equilibrated with a 10 mM Tris-HCl buffer (pH 8.0) at a flow rate of 0.5 mL/minute and confirmed as the absorbance at 480 nm unobservable from FTH only, at the same position as that of a peak of FTH.
The solution containing the FTH was concentrated to 0.25 mL by centrifugal ultrafiltration using Vivaspin 20-100K (GE Healthcare Inc.). […] For the LC-MS analysis, 50 μL of a 1 M glycine hydrochloride buffer (pH 2.3) was added to 50 μL of the sample solution and then the resulting solution was left to stand at room temperature for 15 minutes. To the solution 900 μL of ethanol was added. Next, the resulting solution was stirred vigorously and then centrifuged (at 15,000 rpm for five minutes) to collect its supernatant. The supernatant was analyzed using LCMS-2020 (Shimadzu Corporation) as LC-MS, inertsil (Registered trademark) ODS-3 with a particle diameter of 2 μm and 2.1 mm×50 mm (GL science) as a column. Into the column, 10 μL of the sample was injected, and eluded at a flow rate of 0.2 mL/min for 10 minutes such that a mixing ratio of a solution A (0.1% formic acid/99.9% acetonitrile) and a solution B (50% water/50% acetonitrile) was from 95:5 to 95:5. The concentration of the contained protein was determined using a protein assay CBB solution (Nacalai Tesque, Inc.) in terms of bovine albumin as a standard. The concentration of the encapsulated peptide was determined based on the absorbance at 480 nm of the fluorescent dye FAM to which PKC-F is modified.
First, the construction of FTH encapsulating two kinds of fluorescent dye-modified peptides [5(6)—FAM-[…] (SEQ ID NO: 10), FAM-SV40, chemical formula weight 1,516, and 5(6)—FAM-[…] […] (SEQ ID NO: 11), FAN-Np, chemical formula weight 384] was attempted. 0.5 mL of a 50 mM glycine hydrochloride buffer (pH 2.3) that contains FTH (chemical formula weight 509,421) at a final concentration of 5 mg/mL and a peptide at a final concentration of 0.5 mM, was left to stand at room temperature for 15 minutes. Next, 50 μL of a 1 M Tris hydrochloride buffer (pH 9.0) was added for neutralization, and the resulting solution was left to stand at room temperature for 3 hours. […] The absorbance at […] was confirmed at the same elusion position as that of ferritin 24-mer, for ferritin that was used for the operation to encapsulate FAM-SV40 therein. […] Next, the peptide amount of FAM-SV40 encapsulated in purified ferritin was quantified based on the 480 nm absorbance and by CBB staining with use of ferritin-amount-albumin as a standard.

T1 sequence (P02794 whole entry): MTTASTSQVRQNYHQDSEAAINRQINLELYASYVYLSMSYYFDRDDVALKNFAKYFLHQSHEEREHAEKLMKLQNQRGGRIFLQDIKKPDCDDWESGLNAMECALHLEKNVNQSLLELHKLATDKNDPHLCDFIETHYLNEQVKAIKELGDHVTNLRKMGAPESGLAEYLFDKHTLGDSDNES

Substance: 5(6)-FAM-CGGPKKKRKVG (SEQ ID NO: 10) ({5(6)‑FAM}-CGGPKKKRKVG) [FAM-SV40, fluorescent dye-modified peptide, linear]
- molecules of peptide encapsulated in one molecule of ferritin on average (FTH, from molar ratio): 2.5 molecules
- encapsulation of peptide in FTH (absorbance at 480 nm at elution position of 24-mer FTH, LC-MS): encapsulated in ferritin
